# Reference: patent US20190381184A1 (UNIVERSITY OF NORTH CAROLINA AT CHAPEL HILL, published 2019)
# Tests used:
# PD-L1 [1] = assay: Octet (BLI) binding kinetics of the trivalent PD-L1 trap with PD-L1
# PD-L1 [2] = assay: Octet binding kinetics
# PD-L1 [3] = assay: Octet (BLI); compared with the endogenous PD-1/PD-L1 interaction
# Chain of PD-L1 (chain, as listed by the source): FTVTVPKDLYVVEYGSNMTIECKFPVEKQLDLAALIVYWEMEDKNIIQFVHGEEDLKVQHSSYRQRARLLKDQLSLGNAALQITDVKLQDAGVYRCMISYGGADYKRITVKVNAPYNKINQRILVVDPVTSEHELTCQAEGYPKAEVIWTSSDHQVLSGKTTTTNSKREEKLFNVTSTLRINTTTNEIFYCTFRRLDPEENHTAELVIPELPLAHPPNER
binder,measurement,setting,value
"trivalent PD-L1 trap (PD-1 extracellular domain - flexible linker - CMP-1 trimerization domain fusion, self-assembled trimer) (other, also called trimeric trap; trivalent protein) GSGPPTFSPALLVVTEGDNATFTCSFSNTSESFVLNWYRMSPSNQTDKLAAFPEDRSQPGQDSRFRVTQLPNGRDFHMSVVRARRNDSGTYLCGAISLAPKAQIKESLRAELRVTERRAEGPQPQPKPQPKPEPEPQPQGGSEEDPCACESILKFEAKVEGLLQALTRKLEAVSGRLAVLENRIIAAAGAPVPYPDPLEPRGGSHHHHHH",Kd,PD-L1 [1],~16 pM
same,Kd,PD-L1 [2],~16.2 pM
same,fold higher than between endogenous PD-1 and PD-L1,PD-L1 [3],10000 fold
